For 8 sequences, protein production results are on record in a protein production outcome set (Wang et al. 2014).

The series can be described thus: label from the status in PepcDB records.

Regarding “MEKESQTIFDKNVIEFVTVAAEFCAFLERAESMKRSTFVDTSLKILPLLYLKASMLPKCETIGDEAPETYVTEEIYEILRINLAGLMGDKDDYLDVFVQDMVYSDQPIKKSISEDLADIYQDIKDFIFVFQLGLNETMNDSLAICQENFGMLWGQKLVNTLRALHDVKYNLQDNEEEEENNEEGFYEPSEDDSCCEEGGCHCHDDECHCHEGSCHCHDDEK”, the protein production result was “failed”.

As to “MEKIIVRGGKRLNGTVRVEGAKNAVLPIIAAALLASDGKNVLSEVPVLSDVYTINEVLRHLNAEVVFENNQVTIDASKELNIEAPFEYVRKMRASVQVMGPLLARNGRARIALPGGCAIGSRPIDQHLKGFEAMGAKVQVGNGFVEAYVEGELKGAKIYLDFPSVGATENIMSAATLAKGTTILENAAKEPEIVDLANFLNAMGAKVRGAGTGTIRIEGVDKLYGANHSIIPDRIEAGTFMVAAAITGGDILIENAVPEHLRSITAKMEEMGVKIIEENEGVRVIGPDKLKAVDIKTMPHPGFPTDMQSQMMALLLQADGTSMITETVFENRFMHVEEFRRMNADIKIEGRSVIMNGPNSLQGAEVGATDLRAAAALILAGLVSEGYTRVTELKHLDRGYVDFHKKLAALGATIERVNEKVEEVKEQEVSDLHA”, the protein production entry is “not failed”.

Consider “MEKIRQPTHAGSWYTDNPTKLSSDLEEWLNATGLTKSPDVRGVIAPHAGYSYSGRAAAYAFANIDPTNISRIFLLGPSHHFYTPKCALSTATVYKTPIGNLPVDVEMIKEIRAMGKFGMMDLRVDEAEHSMEMHLPYLAKVFEGNNVKVVPILVGAVSPENEAMYGELLAKYVDDPKNFFSVSSDFCHWGSRFNYMHYDNTHGAIHKSIEALDKKGMDIIETGDPDAFKKYLLEFENTICGRHPISIFLHMLKHSSSKIKINFLRYEQSSQCQTMRDSSVSYASAAAKLET”, for which the protein production entry is recorded as “failed”.

For “MEKKILKPLRKTVSELLCVICTSLLLISLFSFTALAGDINTSPNINSDDKISASVVSKLTEISGDEQIPVIITLPNQKIAFNTAAGKYQIESEQKNLIKFLENEKSKNKVNKIKPIKIINAVAAKVNPEVLASLAGRSDVSKIELDEVVSIVGQSEPSFKKIAASTTLSTAASTNAWGVDKIDAPAVWQQGINGKGITVAVVDTGIDATHPDLDDLDDNPSTNDPKVVGWVDYINSQSSAYDDNGHGTHVAGIVSGTGDNGIQTGVAPGTKLLVAKVFDSEGDGYLSTCILGFEWAVNNNARIISFSGGSPEHDSLFTTMINKVVAAGVVPVIAAGNDGDGSGTITCPGDELNSLTVGATDSSDAIADFSSRGPVTLDDQTYIKPDISAPGVSIPSTYPGDGYAYGDGTSMAAPHVSGTVALILEKKPTMTPAEVKKELESTAVDLGSAGKDNDYGSGRIDAYDAVFGKGPVANFYAKPTSGKVPLTVAFTDTSTGTPTKWRWNFGDGSKSFLQNPKHKYSKAGTYTVNLTVKNAKGKNTVTKTDYIVVISKPTAAFSASPTSGKAPLTVAFTDKSSGNPTAWKWSFGDGTISREKNPTHQYLQEGKYKITLTVSNAAGKSTTKKINYIKVTTNTRPGIYSESK”, the protein production entry is reported as “failed”.

Regarding “MEKLEVGQLAPDFRLKNSDGVEISLKDLLHKKVVLYFYPKDNTPGCTLEAKDFSALFSEFEKKNAVVVGISPDNAQSHQKFISQCSLNVILLCDEDKKAANLYKAYGKRMLYGKEHLGIIRSTFIINTQGVLEKCFYNVKAKGHAQKVLESL”, the protein production result is recorded as “failed”.

For “MEKQPNKLIREKSPYLLQHAWNPVDWHPWGEEAFSRARETGRPIFLSSGYSTCHWCHVMEHESFENAETAALLNRHFVPVKLDREEHPDVDHLYMMFVQATTGRGGWPMSVWMTPDLKPFFGGSYFPATERWGMPSFRSVLEHLANLWEHDRPRLLASAGSIMDQLSGLTRP”, the protein production entry is given as “failed”.

With “MEKQSPTALPGTPITDMPAAAETLLALMHAQAEVARLSEREQLFSSLLVSVNAVLWAFDWETQRMIYVSPAYEHIFGRSAGLLLADYSEWRDSIYPDDLNYAERSLSEVIEKGAVEDREYRIIRADGEVRWLSDKCFVSHRADASQRLIVVGIAEDITDKKHLEDELQRLATTDVLTQSSNRRHFFECAQREFELARLNGTPLAFLLLDIDDFKLVNDTYGHQEGDTVLQRIAESGRSALRRGDLFGRIGGEEFAAVFPGCAPEMAMQIAERLQREIQRQNFQANGSTFSITASQGLTNLGPEDQGLEALYGRADAAMYQAKRQGKNQIVLV”, the protein production entry is on record as “failed”.

Consider “MEKSAGRGRPSVSVERIVATALEAVDEVGAQAFNMRMLAERLGSGTATLYRHFASKDEILIYVVDSVLGELLADQPEAVELVPQGQGSEGYSWQKACASGAERLYGVLRRHPGILPLLVSQIPIGPNGLKRREQGIALFLANGFPAELAARAYTSVAHYVLGFAIQQHSSASSEAAEGEELVEFFAALDASEYPAIATAGRHLPGISVEEEFRFGLKLIIDGLELAASAWRKADGC”, for which the protein production entry is reported as “failed”.
